US20240109974A1 (SHANDONG SIMCERE BIOPHARMACEUTICAL, published 2024)

Key:
[1] = molecular target: T1, Cynomolgus TNFR2-His (Sino 90102-C08H) (cynomolgus monkey, UniProt A0A2K5VET2 132-366); test: ELISA, plate coated with Cynomolgus TNFR2-His, detection with anti-human IgG Fc-HRP [panel A]
T1 construct: Bought protein; also called cynomolgus monkey TNFR2; recombinant cynomolgus monkey TNFR2 protein; not shown: His tag
T1 sequence: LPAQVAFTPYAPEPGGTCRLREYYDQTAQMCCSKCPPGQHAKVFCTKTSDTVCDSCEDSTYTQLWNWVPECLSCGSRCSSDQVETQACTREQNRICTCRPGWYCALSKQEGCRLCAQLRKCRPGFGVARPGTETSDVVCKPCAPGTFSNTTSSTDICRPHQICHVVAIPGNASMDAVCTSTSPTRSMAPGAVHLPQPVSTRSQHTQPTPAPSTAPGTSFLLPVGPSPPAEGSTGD
Experimental: (§1) The test humanized antibody against TNFR2 (as described in Example 1, the antibody was comprised of variable regions linked to IgG-Fc; the WT chimeric antibody also adopted the IgG-Fc structure) was subjected to 3.33-fold gradient dilution, loaded with 100 μl/well, and incubated with shaking at room temperature for 1.5 hours. The plate was washed, and then a working solution of murine anti-human IgG Fc-HRP (diluted at 1:10000) was added, loaded with 100 μl/well, and incubated with shaking at room temperature for 1.0 hour. The plate was washed again, and then the substrate TMB of HRP was added to develop colour. A stop solution was added to stop the reaction, and then a microplate reader (MD 13) was used to read the absorbance value. The binding curve of an antibody was drawn with antibody concentration as the abscissa and corresponding OD value as the ordinate, and fitted with four parameters (GraphPad Prism9) to calculate the EC50 value. The smaller the EC50 value, the stronger the binding ability of an antibody to human/cynomolgus monkey TNFR2. The binding effect of a humanized antibody was normalized to its corresponding human-murine chimeric antibody WT (see SEQ ID NOs: 38-43 for the sequence). The higher the percentage value, the better the binding effect of the humanized antibody. […]

[2] = molecular target: T2, Human TNFR2-His (Sino 10417-H08H) (human, UniProt P20333 23-257); test: ELISA, plate coated with Human TNFR2-His, detection with anti-human IgG Fc-HRP [panel B]
T2 construct: Bought protein; also called recombinant human TNFR2 protein; not shown: His tag
T2 sequence (looked up): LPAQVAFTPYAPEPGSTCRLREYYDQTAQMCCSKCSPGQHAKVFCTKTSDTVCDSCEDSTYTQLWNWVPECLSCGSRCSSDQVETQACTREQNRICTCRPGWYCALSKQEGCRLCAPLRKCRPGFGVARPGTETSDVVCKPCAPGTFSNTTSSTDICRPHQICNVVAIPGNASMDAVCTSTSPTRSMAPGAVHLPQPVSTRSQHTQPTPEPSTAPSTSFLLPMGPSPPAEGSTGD
Experimental: as §1

[3] = molecular target: T3, human TNFR2 on the surface of CHO-TNFR2 cells (human, UniProt P20333 23-461); test: flow cytometry competition: antibody titrated on CHO-TNFR2 cells, then human TNFα-biotin, detection with PE-streptavidin [panel C]
T3 construct: whole, on cells
T3 sequence (looked up): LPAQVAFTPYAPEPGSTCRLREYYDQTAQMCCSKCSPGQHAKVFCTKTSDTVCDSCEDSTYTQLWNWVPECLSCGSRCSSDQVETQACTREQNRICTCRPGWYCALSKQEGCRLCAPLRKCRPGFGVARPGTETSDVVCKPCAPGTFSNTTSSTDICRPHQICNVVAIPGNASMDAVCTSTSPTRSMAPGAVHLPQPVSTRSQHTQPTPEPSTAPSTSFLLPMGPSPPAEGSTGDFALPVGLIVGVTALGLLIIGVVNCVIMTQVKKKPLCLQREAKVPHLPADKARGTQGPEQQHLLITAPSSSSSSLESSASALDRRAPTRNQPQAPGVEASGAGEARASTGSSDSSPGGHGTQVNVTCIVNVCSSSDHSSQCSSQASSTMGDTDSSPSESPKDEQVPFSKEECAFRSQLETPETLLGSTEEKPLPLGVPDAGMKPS
Experimental: CHO stable cells highly expressing human TNFR2 were used for the experiment (the same as CHO-TNFR2 in Example 4). The CHO-TNFR2 cells were digested, washed twice with DPBS, then stained with Live/Dead (L/D) (20 minutes at room temperature), and plated at a density of 1×10⁵ cells/50 μl/well. A test anti-TNFR2 antibody was diluted to 6 μg/ml with a staining buffer as the starting concentration: the antibody was subjected to 3.33-fold gradient dilution, with a total of 7 concentration points. The diluted antibody was added to the plated cells at 50 μl/well, and the mixture was mixed well by gentle pipetting, and incubated at 4° C. for 30 minutes. Then the diluted 100 ng/ml of human TNFα-biotin was added at 100 μl/well, and the mixture was mixed well by gentle pipetting, and then incubated at 4° C. for 30 minutes. The mixture was washed twice with a staining buffer, and then 0.12 μg/ml PE-streptavidin (BioLegend, Cat #405204) was added at 100 μl/well; the resulting mixture was incubated at 4° C. for 30 minutes. The mixture was washed twice with a staining buffer, and then 150 μl of staining buffer was added to resuspend the cells; signals were detected by a flow cytometer (Thermo Attune NxT). […]

[4] = molecular target: T1, Cynomolgus TNFR2-His (Sino 90102-C08H); test: ELISA, plate coated with Cynomolgus TNFR2-His, detection with anti-human IgG Fc-HRP [panel C]
Experimental: as §1

B1: 001-WT (antibody, V domains shown)
VH: EVQLQESGGGLVQPGGSLNLSCAASGFAFSTYDLSWVRQTPEKRLEWVAYINNGGISTYYSDTVKGRFTISRDNAKNTLYLQMSSLKSEDTAMYYCVRGPFYGSANYFDYWGQGTTVTVSS
VL: EIVMTQSPASLSLSVGETVTITCRTSESIYSNLPWYQQKQGKSPQLLVYDATKLAEGVPSRFSGSESGTQYSLKINSLQSEDFGTYYCQHFWVTPWTFGGGTKLEIK
notes: Human-murine chimeric wild-type molecule; also called human-murine chimeric antibody WT of #001
EC50 (read off the curve) [1]: ~0.01 mg/L

B2: 219-WT (antibody, V domains shown)
VH: EVQLQESGAELVRPGASVKLSCKASGYSFTNYWMNWVKQRPGQGLEWIGMIHPSDTETRLNQNFKDKATLTVDKSSSTSYMQLSSPTSEDSAVYYCARGEGLGAARSVSMDYWGQGTTVTVSS
VL: DILMTQSPSSLSASLGDRVTISCRASQDISNYLNWYQQKPDGTVKVLIYYTAILHSGVPSRFSGSGSGTDYSLTISNLEQEDIATYFCQQGNTLPWTFGGGTKLEIK
notes: Human-murine chimeric wild-type molecule
EC50 (read off the curve) [2]: ~0.02 mg/L

B3: 224-WT (antibody, V domains shown)
VH: EVQLQESGPEIVKPGASVKLSCTASGFNNKDIYMHWVKQRPEQGLEWIGRIDPATGNTKHDPKFQDKATLSSDTSSNTAYLQFSSLTSEDTAVYYCAHSPYGDFGAMDYWGQGTTVTVSS
VL: DIQMTQSPAIMSASLGERVTMTCTASSSVSSNYLHWYQQKPGSSPKLWIYSTSNLPSGVPARFSGSGSGTSYSLTISSMEAEDAATYYCHQYHRSPWTFGGGTKLEIK
notes: Human-murine chimeric wild-type molecule; also called human-murine chimeric antibody WT of #224
IC50 (read off the curve) [3]: ~0.05 mg/L
EC50 (read off the curve) [4]: ~0.01 mg/L
